This note sets out measurements from paper PMC5489075, “Purification and characterisation of the fission yeast Ndc80 complex” (Protein Expression and Purification, 2017).

For the test, the target named is T1, Ndc80-eGFP holo complex (S. pombe, UniProt Q10198 1-624; Q10173 1-441; Q9UST6 1-198; Q10430 1-238).
T1 construct: Ndc80, S. pombe, full-length 624 a.a; Nuf2, S. pombe, full-length 441 a.a; Spc24, S. pombe, full-length 198 a.a; Spc25, S. pombe, full-length 238 a.a; also called Ndc80 holo complex; Ndc80 complex; source: E. coli BL21 (DE3) RIL; two sub-complexes purified, mixed, purified (Ni-TED, TEV cleavage, Superose 6 size-exclusion chromatography); not shown: 6His-Z, N-terminal, cleaved; Z-tag, N-terminal, …
T1 sequence (Q10198 whole entry, chain 1 of 4): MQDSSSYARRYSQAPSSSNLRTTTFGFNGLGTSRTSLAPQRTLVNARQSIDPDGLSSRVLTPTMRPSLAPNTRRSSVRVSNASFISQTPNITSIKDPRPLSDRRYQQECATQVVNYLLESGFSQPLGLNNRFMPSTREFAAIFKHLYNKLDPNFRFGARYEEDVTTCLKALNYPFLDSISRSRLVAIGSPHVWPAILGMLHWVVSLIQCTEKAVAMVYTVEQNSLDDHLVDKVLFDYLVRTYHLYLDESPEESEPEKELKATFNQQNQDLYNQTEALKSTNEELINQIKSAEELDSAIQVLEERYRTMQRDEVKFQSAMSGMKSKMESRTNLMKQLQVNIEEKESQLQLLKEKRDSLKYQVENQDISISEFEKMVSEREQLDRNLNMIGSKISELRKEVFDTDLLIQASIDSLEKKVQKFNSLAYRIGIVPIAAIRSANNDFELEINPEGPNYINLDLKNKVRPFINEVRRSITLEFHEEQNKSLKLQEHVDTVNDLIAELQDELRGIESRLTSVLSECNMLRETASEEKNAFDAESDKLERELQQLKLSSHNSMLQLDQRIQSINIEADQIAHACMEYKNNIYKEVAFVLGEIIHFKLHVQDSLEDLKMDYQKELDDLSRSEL
T1 sequence (Q10173 whole entry, chain 2 of 4): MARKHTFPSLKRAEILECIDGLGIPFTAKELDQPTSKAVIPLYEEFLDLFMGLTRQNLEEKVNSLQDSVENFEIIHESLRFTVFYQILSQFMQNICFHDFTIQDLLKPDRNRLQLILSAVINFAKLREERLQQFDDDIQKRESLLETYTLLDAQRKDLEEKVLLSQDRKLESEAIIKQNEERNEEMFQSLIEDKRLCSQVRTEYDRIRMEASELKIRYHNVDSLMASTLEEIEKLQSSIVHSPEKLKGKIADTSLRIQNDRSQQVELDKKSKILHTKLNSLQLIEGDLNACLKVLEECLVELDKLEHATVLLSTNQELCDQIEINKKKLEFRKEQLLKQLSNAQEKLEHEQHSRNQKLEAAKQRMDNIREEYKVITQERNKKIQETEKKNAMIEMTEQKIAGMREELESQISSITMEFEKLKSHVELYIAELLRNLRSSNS
T1 sequence (Q9UST6 whole entry, chain 3 of 4): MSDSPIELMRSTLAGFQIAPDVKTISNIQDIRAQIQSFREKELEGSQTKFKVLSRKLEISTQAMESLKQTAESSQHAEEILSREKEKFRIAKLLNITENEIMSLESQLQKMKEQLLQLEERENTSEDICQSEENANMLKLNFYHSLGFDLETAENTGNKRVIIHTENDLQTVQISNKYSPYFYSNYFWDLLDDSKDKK
T1 sequence (Q10430 whole entry, chain 4 of 4): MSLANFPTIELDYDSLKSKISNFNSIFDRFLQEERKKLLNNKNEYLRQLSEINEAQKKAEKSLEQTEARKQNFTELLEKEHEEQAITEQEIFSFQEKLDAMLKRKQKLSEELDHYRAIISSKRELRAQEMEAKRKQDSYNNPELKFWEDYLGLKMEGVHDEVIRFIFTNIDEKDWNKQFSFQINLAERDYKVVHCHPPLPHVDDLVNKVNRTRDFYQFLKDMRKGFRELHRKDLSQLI
The experiment in a line: TIRF microscopy; 100 pM Ndc80-eGFP holo complex on dynamic Cy5-microtubules with 10 nM unlabelled Dis1 or 20 nM unlabelled Mal3; read-out is the place of the eGFP signal (lattice or growing plus end); BRB80 with 85 mM KCl, 30 °C. Particulars: both partners purified.

B1: Mal3 (natural protein, S. pombe, UniProt Q10113 1-308, looked up)
chain: MSESRQELLAWINQVTSLGLTRIEDCGKGYAMIQIFDSIYQDIPLKKVNFECNNEYQYINNWKVLQQVFLKKGIDKVVDPERLSRCKMQDNLEFVQWAKRFWDQYYPGGDYDALARRGNRGPANTRVMNSSAGATGPSRRRQVSSGSSTPSMTKSSANNNNVSSTANTAAVLRAKQAQQQITSLETQLYEVNETMFGLERERDFYFNKLREIEILVQTHLTTSPMSMENMLERIQAILYSTEDGFELPPDQPADLTTALTDHDTNNVAEEAQMTDLKDSETQRVPSAPDFVHARLQSLEVDDDENITF
notes: Mal3, fission yeast EB1 microtubule plus-end tracking protein; also called Mal3/EB1; unlabelled Mal3
For the molecule B1, the binding result is reported as “binds”.
